Test results as given in US9273140B2, “Antibody for detecting DNA damage in cells utilizing cell membrane surface antigen Ly6D” (FUJITA HEALTH UNIVERSITY, priority 2012, dated 2016).

Legend:
[1] = test system: LY6D expression on the surfaces of MCF10A cells; assay: LY6D expression in MCF10A cells incubated with DNA-damaging stressors, by FCM; type: cell-based; settings: contact with DNA-damaging stressor (MMC 300 nM; hydroxyurea 2 mM), FIG. 4
Procedure: MCF10A cells were incubated with DNA-damaging stressor (MMC: 300 nM), carboplatin, hydroxyurea (2 mM), or aphidicolin and relative LY6D expression was determined by FCM.
After the growth to confluence, the cells were irradiated at 10Gy (3 mA/50 kV) in cabinet-type X-ray apparatus (SOFRON, soft X-ray inversion system). At a desired timing after irradiation, the cells were harvested.
The FCM analysis was carried out according to the method reported previously (Kurosawa et al., 2009, Immunol. Meth. 351: 1-12). Reactivity of the obtained anti-Ly6D antibodies was examined using the Ly6D expression cell line, namely A431™ (cell line human squamous carcinoma) (CML ATCC CCL-243). The A431 cells were recovered by centrifugation. The recovered cells were washed once with PBS and then suspended in FACS Buffer (PBS containing 1% BSA, 2 mM EDTA, and 0.1% NaN3) to result in 1×10^6 cells/mL. The cell suspension (100 μL) was dispensed on a 96-well V-bottomed plate (Costar 3897). The Ly6D antibodies were adjusted to a concentration of 0.02 to 2 μg/mL using FACS Buffer. The prepared antibody solution (100 μL) was added to the cells, followed by incubation at 4° C. for 1 hour. The cells were washed twice with FACS buffer. Then, 100 μL of ALEXAFLUOR-anti-human IgG™ (fluorescent antibody) (Invitrogen) diluted 750-fold with FACS Buffer was added to the cells, followed by another incubation at 4° C. for 1 hour. The cells were washed with FACS Buffer twice by centrifugation and set in HTS of FACS Calibur (BD) for measurement of FL1 fluorescence intensity of each well.
It is well known that X-ray irradiation causes damage to DNA, which results in DNA double-strand breaks. A variety of chemical reagents also cause DNA damage stress in cells. Therefore, the influence of camptothecin (CPT) on the LY6D expression in MCF10A cells was examined. […] Therefore, the induction of LY6D expression on the surfaces of MCF10A cells was confirmed to be a common phenomenon due to DNA damage stress.

[2] = test system: LY6D expression; settings: Rubinfeld et al., 2006; cited from earlier work
[3] = test system: MCF10A cells; assay: Selection of monoclonal antibodies by cell ELISA, FCM and confocal laser microscopy on X-ray-irradiated and non-irradiated cells; type: binding
Procedure: X-ray-irradiated MCF10A cells (black bars) and non-irradiated MCF10A cells (gray bars) were subjected to ELISA using six monoclonal antibodies (A: cell ELISA). X-ray-irradiated cells (pink) and non-irradiated cells (green) were incubated with six monoclonal antibodies and subjected to FCM, and non-irradiated cells incubated with PBS were used as a negative control (purple) (B: FCM). X-ray-irradiated cells and non-irradiated cells were stained with the E33-139 monoclonal antibody (green) and DAPI (blue), respectively, and examined using a confocal laser microscope (C: immunofluorescence confocal laser microscopy).
X-ray-irradiated cells and non-irradiated cells were prepared, and antibodies specific to the irradiated cells were screened for by cell ELISA. That is, reactivity of antibody to both cells was examined by ELISA. A blocking solution (5% skim milk/0.05% NaN3/PBS) was added at 200 μL/well to both cells, followed by blocking at 37° C. for 2 hours. The blocking solution was removed and the cells were washed with PBS. The supernatant of the above antibody expression culture was added at 100 μL/well, followed by reaction at 37° C. for 1 hour. The resultant was washed five times with PBS. Rabbit anti-cp3 (1 μg/mL) diluted with PBS/0.05% Tween 20 was added at 100 μL/well, followed by reaction at 37° C. for 1 hour. The resultant was washed five times with PBS. Anti-Rabbit IgG (H+L)-HRP diluted 2000-fold with PBS/0.05% Tween 20 was further added at 100 μL/well, followed by reaction at 37° C. for 1 hour. The resultant was washed five times with PBS. […] Then, the absorbance at 492 nm was measured by SPECTRAmax340PC (Molecular Devices). Antibodies showing obvious positive reactivity specific to only the irradiated cells were selected and DNA sequences of the phages were analyzed. […]
The FCM analysis was carried out according to the method reported previously (Kurosawa et al., 2009, Immunol. Meth. 351: 1-12). […] The cells were washed with FACS Buffer twice by centrifugation and set in HTS of FACS Calibur (BD) for measurement of FL1 fluorescence intensity of each well. […]

[4] = target: T1, LY6D (Homo sapiens, UniProt Q14210); assay: Immunoprecipitation, western blot and mass spectrometry to identify the antigen recognized by the antibody; type: binding; settings: for 14 kDa band in western blot of immunoprecipitate: FIG. 2A
T1 construct: LY6D was identified by the precipitate derived from the X-ray-irradiated cells; endogenous in cells; host or cells: MCF10A cells (X-ray-irradiated and non-irradiated); FaDu cells
T1 sequence (Q14210 21-98 limits assumed): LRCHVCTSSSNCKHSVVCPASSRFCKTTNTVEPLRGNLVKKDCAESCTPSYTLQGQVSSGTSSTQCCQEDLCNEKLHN
Procedure: After biotinylation, the membrane proteins of the X-ray-irradiated MCF10A cells (right) and non-irradiated MCF10A cells (left) were solubilized and subjected to immunoprecipitation using the E33-139 monoclonal antibody, the product was separated by SDS-PAGE, and western blot was performed with HRP-conjugated streptavidin (A: western blot). MCF10A cells treated as described above were digested with PI-PLC, the resultant was centrifuged, and cell pellets (P) and the supernatant (S) subjected to PI-PLC treatment were separately immunoprecipitated (B: western blot). FaDu cells were treated with LY6D siRNA or control siRNA and analyzed by FCM using the E33-139 monoclonal antibody (black line: control siRNA and the E33-139 monoclonal antibody; dashed line: LY6D siRNA and the E33-139 monoclonal antibody; gray: control siRNA without the E33-139 monoclonal antibody (C: FCM). The experiment shown in FIG. 2B was carried out using FaDu cells (D: western blot). Solubilized FaDu cells were subjected to IP using the E33-139 monoclonal antibody and the product was separated by SDS-PAGE (left: western blot using anti-hLY6D Ab (polyclonal Ab, commercial product); right: silver stained gel) (E: western blot).
Conditions of immunoprecipitation were set as previously reported (Kurosawa et al., 2009, J. Immunol. Meth. 351: 1-12). […] The concentrate was analyzed by LC/MS.
Immunoprecipitation (IP) was performed to identify an antigen recognized by the E33-139 antibody. […] They were determined to be detected in precipitates in a nonspecific manner because they are abundant in the cytoplasm. […] Therefore, LY6D was determined to be a promising candidate as an antigen recognized by E33-139.
It has been reported that LY6D is abundantly expressed in a large amount in squamous cell carcinoma of head and neck (Quak et al., 1990, Am. J. Pathol. 136: 191-197). […] Before digestion with PI-PLC, a 14-kDa band was detected by the western blot method. […] The resulting blots were detected using a commercially available anti-human LY6D antibody. […]

Molecule: C[C@@]1(CO)[C@H](O)CC[C@@]2(C)[C@H]1CC[C@H]1C[C@@H]3C[C@@]12CC[C@]3(O)CO [aphidicolin]
- LY6D expression on the surfaces of MCF10A cells [1]: induced

Molecule: N.N.O=C([O-])C1(C(=O)[O-])CCC1.[Pt+2] [carboplatin]
- LY6D expression on the surfaces of MCF10A cells [1]: induced

Molecule: NC(=O)NO [hydroxyurea]
- LY6D expression on the surfaces of MCF10A cells [1]: induced

Molecule: CCc1c2c(nc3ccc(OC(=O)N4CCC(N5CCCCC5)CC4)cc13)-c1cc3c(c(=O)n1C2)COC(=O)[C@]3(O)CC [irinotecan]
- LY6D expression after chemotherapy treatment [2]: significantly enhanced

Molecule: CO[C@@]12[C@H](COC(N)=O)C3=C(C(=O)C(C)=C(N)C3=O)N1C[C@@H]1N[C@@H]12 [mitomycin C]
- LY6D expression on the surfaces of MCF10A cells [1]: induced

B1: E33-139: human phage antibody (scFv) against LY6D; sequence SEQ ID NOS: 1 and 2, CDRs SEQ ID NOS: 3 to 8 (protein)
scFv: MAEVQLVESGGGLVQPGRSLRLSCAASGFTFDDYAMHWVRQAPGKGLEWVSGISWNSGSIGYADSVKGRFTISRDNAKNSLYLQMNSLRAEDTALYYCAKTGILDAFDIWGQGTTVTVSRGGGGSGGGGSGGGGSMAQSVLTQPPSVSGAPRQTVTISCSGSSSNIGQNSVTWYQRLPGEAPKLLIYYDDLLHSGVSDRFSGSKSGTSASLAISGLQSEDEAEYYCASWDDSLKGPVFGGGTKLTVLGQPKAAPSVTLFPPSSEELQANKATLVCLISDFYPGAVTVAWKADSSPVKAGVETTTPSKQSNNKYAASSYLSLTPEQWKSHKSYSCQVTHEGSTVEKTVAPTECSAR
modifications: human
- reactivity to MCF10A cells after X-ray irradiation ([3]; X-ray-irradiated MCF10A cells (10Gy)): increased reactivity
- binding to molecules on the surfaces of X-ray-irradiated cells, confocal laser microscope analysis ([3]; X-ray-irradiated MCF10A cells, FIG. 1C): consistently and strongly binds
- reactivity to MCF10A cells before X-ray irradiation ([3]; non-irradiated MCF10A cells): no reactivity
- antigen recognized by the antibody ([4]; IP, MS, PI-PLC, siRNA and anti-human LY6D western blot): antigen protein 139 is LY6D
- 14 kDa band in western blot of immunoprecipitate ([4]; samples from X-ray-irradiated MCF10A cells): a prominent band was observed
- 14 kDa band in western blot of immunoprecipitate ([4]; samples from non-irradiated MCF10A cells): slightly observed
